Measurements from patent US20220227840A1.

These substances were tested against tissue factor (TF) extracellular domains (UniProt P13726) (assay: SPR, TF on chip). Conditions: not given.
Target sequence in this assay (P13726 33-251 limits assumed): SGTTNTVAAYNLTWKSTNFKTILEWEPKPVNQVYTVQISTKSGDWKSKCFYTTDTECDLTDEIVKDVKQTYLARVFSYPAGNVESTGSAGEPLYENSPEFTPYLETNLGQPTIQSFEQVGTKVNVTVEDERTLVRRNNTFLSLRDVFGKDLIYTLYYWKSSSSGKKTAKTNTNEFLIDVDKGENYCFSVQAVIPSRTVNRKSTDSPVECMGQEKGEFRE
Work on “D3H44 Fab H:D146G_Q179K L:Q124E_Q160E_T180E” yielded a Kd of 0.024 nM. “D3H44 Fab H:D146G_Q179R L:Q124E_Q160E_T178D” was tested, and the Kd was 0.082 nM. In the case of D3H44 Fab H:F174V_P175S_S188G L:S176L, the Kd is reported as 0.04 nM. “D3H44 Fab H:K145T_Q179D_S188F L:V133A_Q160K_T178R” gave a Kd of 0.086 nM. Substance “D3H44 Fab H:K145T_Q179D_S188L L:Q160K_T178R” has a Kd of 0.071 nM. Work on “D3H44 Fab H:L143A_D146G_Q179R L:Q124E_V133W_Q160E_T180E” yielded a Kd of 0.087 nM. Substance D3H44 Fab H:L143E_K145T L:Q160K_T178R has a Kd of 0.06 nM. Work on “D3H44 Fab H:Q39D_A139G_V190A L:Q38R_L135W” yielded a Kd of 0.025 nM. D3H44 Fab H:S188L_V190Y L:V133S was tested, and the Kd was 0.043 nM. “D3H44 WT Fab with FLAG-tagged light chain” gave a Kd of 0.0622 nM. Work on D3H44 WT Fab with HA-tagged light chain yielded a Kd of 0.0522 nM.

Biological target: tissue factor (TF) extracellular domains (UniProt P13726)
Experiment: SPR, TF on chip
Conditions: not given
Remark: another data set of the same source
Target sequence in this assay (P13726 33-251 limits assumed): as above
In the case of D3H44 Fab H:A139G_V190A L:L135W, the Kd is reported as 0.0586 nM. D3H44 Fab H:A139I L:F118W_V133S gave a Kd of 0.052 nM. “D3H44 Fab H:A139I_K145T_D146G_Q179E_S188G_V190S L:F116A_V133G_S176F_T178A” was tested, and the Kd was 0.0406 nM. Work on “D3H44 Fab H:D146G_Q179K L:Q124E_Q160E_T178D” yielded a Kd of 0.0525 nM. “D3H44 Fab H:D146G_Q179K L:Q124E_Q160E_T180E” gave a Kd of 0.0245 nM. Substance “D3H44 Fab H:D146G_Q179K L:Q124E_V133W_Q160E_T180E” has a Kd of 0.0828 nM. In the case of “D3H44 Fab H:D146G_Q179R L:Q124E_Q160E_T178D”, the Kd is reported as 0.0816 nM. For “D3H44 Fab H:D146G_Q179R L:Q124E_Q160E_T180E”, the Kd was 0.078 nM. Work on “D3H44 Fab H:D146G_Q179R L:Q124E_V133W_Q160E_T180E” yielded a Kd of 0.0631 nM. “D3H44 Fab H:D146G_S186R L:Q124E_Q160E_T178D” showed a Kd of 0.0511 nM. With “D3H44 Fab H:D146G_S186R L:Q124E_Q160E_T180E” the Kd was 0.0671 nM. D3H44 Fab H:F100M_W103V L:P44W_L89W showed a Kd of 1.54 nM. D3H44 Fab H:F174G_S188A L:WT showed a Kd of 0.0792 nM. With D3H44 Fab H:F174V_P175S_S188G L:S176L the Kd was 0.0399 nM. D3H44 Fab H:F174V_S188L L:S176G was tested, and the Kd was 0.0949 nM. D3H44 Fab H:F174V_S188L L:V133S gave a Kd of 0.0201 nM. Work on D3H44 Fab H:F174V_S188L L:WT yielded a Kd of 0.0377 nM. In the case of D3H44 Fab H:F174W_S188L L:S176G, the Kd is reported as 0.0155 nM. D3H44 Fab H:F174W_S188L L:V133S was tested, and the Kd was 0.0172 nM. Work on D3H44 Fab H:F174W_S188L L:WT yielded a Kd of 0.0271 nM. In the case of “D3H44 Fab H:K145E_D146G_Q179D_S188F L:V133A_Q160K_T178R”, the Kd is reported as 0.0219 nM. “D3H44 Fab H:K145E_D146G_Q179D_S188L L:Q160K_T178R” gave a Kd of 0.0415 nM. Substance D3H44 Fab H:K145L_Q179E L:S131K has a Kd of 0.066 nM. Substance “D3H44 Fab H:K145T_Q179D_S188F L:Q160K_T178R” has a Kd of 0.111 nM. In the case of “D3H44 Fab H:K145T_Q179D_S188F L:V133A_Q160K_T178R”, the Kd is reported as 0.0856 nM. Substance “D3H44 Fab H:K145T_Q179D_S188L L:Q160K_T178R” has a Kd of 0.0705 nM. “D3H44 Fab H:K145T_Q179D_S188L L:V133A_Q160K_T178R” showed a Kd of 0.0423 nM. D3H44 Fab H:L45W L:Y87G showed a Kd of 0.197 nM. “D3H44 Fab H:L143A_D146G_Q179R L:Q124E_V133W_Q160E_T180E” showed a Kd of 0.0871 nM. D3H44 Fab H:L143E_K145T L:Q124R gave a Kd of 0.0596 nM. “D3H44 Fab H:L143E_K145T L:Q124R_Q160K_T178R” was tested, and the Kd was 0.0769 nM. In the case of D3H44 Fab H:L143E_K145T L:Q160K_T178R, the Kd is reported as 0.0236 nM. D3H44 Fab H:L143K_D146G L:Q124E_V133D gave a Kd of 0.0243 nM. With D3H44 Fab H:Q39D L:Q38R_F98W the Kd was 0.127 nM. Substance “D3H44 Fab H:Q39D_A139G_V190A L:Q38R_L135W” has a Kd of 0.117 nM. With D3H44 Fab H:Q39E L:Q38N_T85K the Kd was 0.0201 nM. For D3H44 Fab H:Q39E L:Q38N_T85K_F98W, the Kd was 0.0348 nM. With D3H44 Fab H:Q39E L:Q38R_F98W the Kd was 0.163 nM. In the case of D3H44 Fab H:Q39K L:Q38N_T85E, the Kd is reported as 0.0213 nM. D3H44 Fab H:Q39K L:Q38N_T85E_F98W showed a Kd of 0.0134 nM. Work on D3H44 Fab H:Q39M L:Q38M yielded a Kd of 0.0273 nM. D3H44 Fab H:Q39R L:Q38D gave a Kd of 0.0229 nM. D3H44 Fab H:Q39R L:Q38D_F98W showed a Kd of 0.127 nM. Work on D3H44 Fab H:Q39R L:Q38E_F98W yielded a Kd of 0.178 nM. “D3H44 Fab H:S186K_S188H_V190G L:F118W_Q124E_V133S_S176A_T178S_T180E” was tested, and the Kd was 0.0615 nM. In the case of D3H44 Fab H:S186R L:Q124E_Q160E_T178D, the Kd is reported as 0.125 nM. D3H44 Fab H:S188L L:S176G was tested, and the Kd was 0.0866 nM. In the case of D3H44 Fab H:S188L L:V133S, the Kd is reported as 0.0144 nM. In the case of D3H44 Fab H:S188L L:WT, the Kd is reported as 0.0342 nM. With D3H44 Fab H:S188L_V190Y L:V133S the Kd was 0.0428 nM. For “D3H44 Fab H:V37A_Q39E_W103V L:Q38N_P44W_T85K”, the Kd was 0.55 nM. With “D3H44 Fab H:V37A_Q39K_W103H L:Q38N_P44W_T85E” the Kd was 0.832 nM. In the case of D3H44 Fab H:V37A_Q39R_W103V L:Q38E_P44W, the Kd is reported as 0.977 nM. D3H44 Fab H:V37E L:L89R_F98T showed a Kd of 2.41 nM. D3H44 Fab H:V37I_Q39D L:Q38R_F98W gave a Kd of 0.177 nM. In the case of D3H44 Fab H:V37I_Q39E L:Q38N_T85K, the Kd is reported as 0.0182 nM. In the case of D3H44 Fab H:V37I_Q39E L:Q38N_T85K_F98W, the Kd is reported as 0.125 nM. D3H44 Fab H:V37I_Q39E L:Q38R_F98W showed a Kd of 0.0729 nM. Work on D3H44 Fab H:V37I_Q39R L:Q38D_F98W yielded a Kd of 0.101 nM. D3H44 Fab H:V37I_Q39R L:Q38E was tested, and the Kd was 0.123 nM. For D3H44 Fab H:V37I_Q39R L:Q38E_F98W, the Kd was 0.144 nM. For D3H44 Fab H:V37I_W103H L:P44W_F98W, the Kd was 0.24 nM. Work on D3H44 Fab H:V37S_A93K L:F98Y yielded a Kd of 0.42 nM. Work on D3H44 Fab H:V37T_A93Q_W103T L:P44W_F98W yielded a Kd of 1.33 nM. For D3H44 Fab H:V37T_A93Q_W103V L:P44W_F98W, the Kd was 0.192 nM. D3H44 Fab H:V37W L:F98A was tested, and the Kd was 3.44 nM. D3H44 Fab H:V37W_A93V L:F98A gave a Kd of 0.697 nM. D3H44 Fab H:V37W_F100W_W103L L:F98A was tested, and the Kd was 1.22 nM. In the case of D3H44 Fab H:V37W_Q39D L:Q38R_F98A, the Kd is reported as 1.73 nM. In the case of D3H44 Fab H:V37W_Q39D_W103F L:Q38R_F98L, the Kd is reported as 0.924 nM. D3H44 Fab H:V37W_Q39D_W103H L:Q38R_F98L showed a Kd of 7.89 nM. D3H44 Fab H:V37W_Q39E L:Q38N_T85K_F98A showed a Kd of 0.861 nM. Work on D3H44 Fab H:V37W_Q39E L:Q38R_F98A yielded a Kd of 0.902 nM. “D3H44 Fab H:V37W_Q39E_W103F L:Q38N_T85K_F98L” gave a Kd of 2.51 nM. For D3H44 Fab H:V37W_Q39E_W103F L:Q38R_F98L, the Kd was 0.172 nM. D3H44 Fab H:V37W_Q39K L:Q38N_T85E_F98A was tested, and the Kd was 1.78 nM. Substance “D3H44 Fab H:V37W_Q39K_W103F L:Q38N_T85E_F98L” has a Kd of 0.984 nM. D3H44 Fab H:V37W_Q39R L:Q38E_F98A gave a Kd of 3.18 nM. D3H44 Fab H:V37W_Q39R_W103F L:Q38E_F98L gave a Kd of 1.11 nM. In the case of D3H44 Fab H:V37W_Q39R_W103H L:Q38D_F98L, the Kd is reported as 5.62 nM. With D3H44 Fab H:V37W_Q39R_W103H L:Q38E_F98L the Kd was 2.99 nM. D3H44 Fab H:V37W_W103F L:F98L gave a Kd of 0.955 nM. Substance D3H44 Fab H:W103H L:P44W_F98W has a Kd of 0.212 nM. D3H44 Fab H:W103H L:P44W_L89W_F98A gave a Kd of 3.4 nM. D3H44 Fab H:W103V L:P44W_F98W showed a Kd of 0.174 nM. Work on D3H44 Fab H:W103V L:P44W_L89W_F98A yielded a Kd of 4.12 nM. D3H44 Fab H:WT L:F98W was tested, and the Kd was 0.0109 nM. In the case of D3H44 Fab H:WT L:L89F_F98W, the Kd is reported as 0.239 nM. Wild-type anti-TF D3H44 Fab gave a Kd of 0.056 nM.

Each substance was assayed against tissue factor (TF) extracellular domains (UniProt P13726) (assay: not given). Conditions: Fab.
Target sequence in this assay (P13726 33-251): as the sequence (P13726 33-251 limits assumed) above
Substance D3H44 Fab H:V37W L:F98A has a Kd of 0.977 nM.
